Our source for the stoichiometry N values is publication doi:10.1101/688531.

Where “and” joins values, the source holds several entries; their conditions need not be identical. Identical values can stand only once.

This assay concerns the target synthetic horse SLN (horse). Briefly: SDS-PAGE with immunoblot. (Immunoblotting shows a protein as a band on a membrane.)

As usually defined, the stoichiometry N is a count of units in the complex or per binding partner. synthetic horse SLN (peptide): the stoichiometry N was 2 and 3.
